In patent publication US11752211B2, “Fatty acids and their use in conjugation to biomolecules” (NOVARTIS AG, priority 2014, dated 2023):
Starred links: 1 amine or outer side, 2 acyl side, 3 side chain; linkers in the order of their positions; H or OH if unused. Positions of bridges follow the written chain, without caps; N, C: chain ends. Non-standard residues stand in square brackets, D forms with d. Residues, ends and D or L forms follow the SMILES beside them. Groups on a side chain read outwards from the residue. *: point of attachment. PEG24 = NCCOCCOCCOCCOCCOCCOCCOCCOCCOCCOCCOCCOCCOCCOCCOCCOCCOCCOCCOCCOCCOCCOCCOCCOCCC(=O)O; Malonyl(C11H23,(CH2)10COOH) = CCCCCCCCCCCC(CCCCCCCCCCC(=O)O)(C(=O)O)C(=O)*; NGly(3-aminopropyl) = O=C(CN(CCCN[*:3])[*:1])[*:2]; pGlu = O=C1CC[C@@H](C(=O)O)N1; NHPhenethyl = c1ccc(CCN*)cc1; dNle = CCCC[C@@H](N)C(=O)O; Nle = CCCC[C@H](N)C(=O)O; Sar = CNCC(=O)O

How the values were obtained:
[1] = In vivo plasma stability of oxytocin conjugate, 3 mg/kg iv; parameters: species or system rats; settings: 3 mg/kg intravenously; for half-life: rat, plasma, iv, male Sprague-Dawley rats, read-out: In vivo Plasma stability t½ (converted)
Experimental: (§1) Conjugate was dissolved in PBS (Phosphate buffered saline) to a concentration of 3 mg/ml to form Dosing solution. Dosing solution was administered intravenously to male Sprague-Dawley rats via lateral tail vein at a volume of 1 ml/kg body weight, corresponding to a dose of 3 mg/kg. Venous blood samples were acquired from a jugular vein catheter at prescribed times after dosing and immediately placed on wet ice. These samples were centrifuged at 4C, with supernatant plasma transferred to a fresh tube for analysis.
Standard curve preparation: Stock solution was prepared by dissolving peptide conjugate and peptide into two separate vials in dimethylsulfoxide to 1 mg/ml. 10 uL of each stock was mixed with 980 uL rat plasma to form a working stock of 10,000 ng/ml in plasma. This was serially diluted in plasma to form standards of 5000, 1000, 500, 100, 50, 10, 5, 1, 0.5, and 0.1 ng/ml. Sample and standard preparation: 25 uL plasma sample or standard was transferred to a clean plate. 150 uL acetonitrile containing 100 ng/ml glyburide as internal standard was added to each vial and the plate vortexed to mix the contents. The plate was centrifuged at 4000 rpm at 4 C. 125 uL supernatant was transferred to a clean plate, mixed with 150 uL water and analyzed by LC/MS.

OT = target: T1, OT (Homo sapiens, UniProt P30559); experiment: OT Calcium flux agonist assay (GPCRProfiler); assay type: cell-based; settings: read-out: OT Ca^2+ Flux EC50
T1 sequence (P30559 1-389): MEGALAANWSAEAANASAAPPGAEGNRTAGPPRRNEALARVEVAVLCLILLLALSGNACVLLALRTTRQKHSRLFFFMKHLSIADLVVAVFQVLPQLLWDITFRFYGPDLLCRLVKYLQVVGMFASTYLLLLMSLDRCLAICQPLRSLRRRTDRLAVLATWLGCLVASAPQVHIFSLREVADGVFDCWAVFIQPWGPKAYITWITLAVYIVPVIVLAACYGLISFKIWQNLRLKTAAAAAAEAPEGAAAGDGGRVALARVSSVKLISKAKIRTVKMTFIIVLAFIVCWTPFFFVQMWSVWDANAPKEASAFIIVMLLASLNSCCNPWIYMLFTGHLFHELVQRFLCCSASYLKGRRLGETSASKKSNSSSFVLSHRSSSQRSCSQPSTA
Experimental: Supplied compounds were prepared in DMSO and ultimately prepared in the Eurofins Discovery Services GPCRProfiler® Assay Buffer to concentrations that were three-fold higher than the final assay concentration. Similarly, vehicle controls and positive controls were prepared to ensure all assays were properly controlled.
All wells were prepared using the Eurofins Discovery Services GPCRProfiler® Assay Buffer. The GPCRProfiler® Assay Buffer was a modified Hanks Balanced Salt Solution (HBSS) where HBSS was supplemented to contain 20 mM HEPES and 2.5 mM Probenecid at pH7.4.
Compound(s) supplied were plated in duplicate for each concentration assayed.
Reference agonist, oxytocin, was prepared in a similar manner to serve as assay control. The reference agonist, oxytocin, was included at Emax (the concentration where the reference agonist elicited a maximal response).
The agonist assay was conducted on a […] instrument where the test compound(s), vehicle controls, and reference agonist were added to the assay plate after a fluorescence/luminescence baseline was established. […]
All plates were subjected to appropriate baseline corrections. Once baseline corrections were processed, maximum fluorescence/luminescence values were exported and data manipulated to calculate percentage activation and percentage inhibition. […]

[2] = In vivo plasma stability of APJ agonist conjugates, 1 mg/kg iv; settings: rat, male Sprague-Dawley rats, 1 mg/kg intravenously, read-out: In vivo Plasma stability t½ (converted)
Experimental: as §1, with “1” for “3”
• Standard curve preparation: Stock solution was prepared by dissolving peptide conjugate in water to 1 mg/ml. 10 uL of Stock was mixed with 990 uL rat plasma to form a working stock of 10,000 ng/ml in plasma. This was serially diluted in plasma to form standards of 5000, 1000, 500, 100, 50, 10, 5 and 1 ng/ml. • Sample and standard preparation: 25 uL plasma sample or standard was transferred to a clean plate. 150 uL acetonitrile:MeOH (1:1) containing 100 ng/ml glyburide as internal standard was added to each vial and the plate vortexed to mix the contents. The plate was centrifuged at 4000 rpm at 4 C. 125 uL supernatant was transferred to a clean plate, mixed with 50 uL water and analyzed by LC/MS.

[3] = Material quality check of GDF15 proteins (clipping, methionine oxidation, deamidation); assay type: physicochemical
From the text: The AHA-(200-308)-hGDF15 (SEQ ID NO: 7) was designed to remove the clipping site observed within the native protein as well as to remove the potential methioinine (M1) formylation site and the N-199 deamidation site.

[4] = system: Diet-induced obese male mice (C57BL/6NTac); experiment: DIO mice single 0.5 mg/kg sc dose: food intake and body weight; settings: exp 1 / exp 2 = separate in vivo experiments
Experimental: (§2) All animal studies described in this document were approved by the Novartis Institutes for Biomedical Research Animal Care and Use Committee in accordance with local and federal regulations and guidelines. Diet-induced obese male mice (C57BL/6NTac) were purchased from Taconic and fed a 60% fat diet (Research Diets D12492i) from 6-weeks of age onward. Upon arrival, mice were housed one animal per cage under a 12 h:12 h reverse light-dark cycle. Animals all received a minimum of 1 week acclimation prior to any use. Mice were typically studied between 3-4 months of age. […] On the day of study, mice were placed in fresh cages, and the old food removed. Approximately 1 h later and just prior to the dark cycle, mice received a single subcutaneous dose of either vehicle (30 mM sodium acetate, pH 4) or a lipid conjugated GDF15 analog (0.5 mg/kg). After all injections are completed, the mice were reweighed and a defined amount of food returned ([…] per mouse). In surrogate animals treated as described above, plasma was collected at the indicated times, and GDF15 levels were measured by ELISA as per the manufacturer's instructions (R&D Systems Quantikine Human GDF15 Immunoassay; DGD150). The activity and half-life of the conjugates of the invention were tested in the assay described supra.

[5] = DIO mice single 0.5 mg/kg sc dose: plasma GDF15 levels by ELISA (PK); settings: exp 1 / exp 2 = separate in vivo experiments
Experimental: as §2

[6] = clipping site R9/N10 (for the AHA protein: none detected)

In the case of `CC[C@H](C)[C@@H]1NC(=O)[C@H](Cc2ccc(O)cc2)NC(=O)CNC(=O)CC[C@@H](C(=O)N(C)CC(=O)N[C@@H](CC(C)C)C(=O)NCC(N)=O)NC(=O)[C@H](CC(N)=O)NC(=O)[C@H](CCC(N)=O)NC1=O` (GYIQNE[Sar]LG-NH2; lactam N-6), the half-life [1] is reported as 36 min and the EC50 (OT) is reported as 7.8 nM.

Molecule `C=CCCCCCCCCCC(CCCCCCCCCCC(=O)O)(C(=O)O)C(=O)NCCOCCOCCOCCOCCOCCOCCOCCOCCOCCOCCOCCOCCOCCOCCOCCOCCOCCOCCOCCOCCOCCOCCOCCn1nnc2c1CCC1C(CC2)[C@@H]1COC(=O)NCCCC[C@@H]1NC(=O)[C@H](Cc2c[nH]cn2)NC(=O)[C@@H](NC(=O)[C@H](CC(C)C)NC(=O)[C@H](CCCNC(=N)N)NC(=O)[C@@H]2CCCN2C(=O)[C@H](CCCNC(=N)N)NC(=O)[C@@H]2CCC(=O)N2)CSSC[C@@H](C(=O)N[C@@H](Cc2ccccc2)C(=O)O)NC(=O)[C@H](CCCC)NC(=O)[C@@H]2CCCN2C(=O)CNC1=O` (stereo partly drawn) [Example 21A] has a half-life ([2]; plasma) of 444 min.

With `CCCCCCCCCCCC(CCCCCCCCCCC(=O)O)(C(=O)O)C(=O)NCCOCCOCCOCCOCCOCCOCCOCCOCCOCCOCCOCCOCCOCCOCCOCCOCCOCCOCCOCCOCCOCCOCCOCCOCCC(=O)NCCCN(CC(=O)N[C@@H](CC(C)C)C(=O)NCC(N)=O)C(=O)[C@@H]1CCC(=O)NCC(=O)N[C@@H](Cc2ccc(O)cc2)C(=O)N[C@@H]([C@@H](C)CC)C(=O)N[C@@H](CCC(N)=O)C(=O)N[C@@H](CC(N)=O)C(=O)N1` (stereo partly drawn) [Example 26A] (GYIQNE[NGly(3-aminopropyl)]([PEG24-Malonyl(C11H23,(CH2)10COOH)])LG-NH2; lactam N-6) the half-life [1] was 2760 min, the “increase in half-life compared to unconjugated oxytocin analog” value ([1]; rats) was 75 fold and the EC50 (OT) was 8.4 nM.

Work on `CCCC[C@@H](NC(=O)[C@@H]1CCCN1C(=O)CNC(=O)[C@H](CCCCN)NC(=O)[C@@H]1CSSC[C@H](NC(=O)[C@@H]2CCCN2C(=O)[C@H](CCCNC(=N)N)NC(=O)[C@@H]2CCC(=O)N2)C(=O)N[C@@H](CC(C)C)C(=O)N[C@@H](CO)C(=O)N1)C(=O)NCCc1ccccc1` [pE-R—P—C*-L-S—C*—K-G-P-(D-Nle)-NH(Phenethyl) (disulfide C^4-C^7)] ([pGlu]RPCLSCKGP[dNle]-NHPhenethyl; disulfide 4-7) yielded a half-life ([2]; in vivo) of 54 min.

For `CCCC[C@@H]1NC(=O)[C@@H]2CCCN2C(=O)CNC(=O)[C@H](CCCCN)NC(=O)[C@H](Cc2cnc[nH]2)NC(=O)[C@@H](NC(=O)[C@H](CC(C)C)NC(=O)[C@H](CCCNC(=N)N)NC(=O)[C@@H]2CCCN2C(=O)[C@H](CCCNC(=N)N)NC(=O)[C@@H]2CCC(=O)N2)CSSC[C@@H](C(=O)N[C@@H](Cc2ccccc2)C(=O)O)NC1=O` [pE-R—P—R-L-C*—H—K-G-P-Nle-C*—F—OH(Disulfide C^6-C^12)] ([pGlu]RPRLCHKGP[Nle]CF-OH; disulfide 6-12), the half-life ([2]; in vivo) was 42 min.

In the case of “MHHHHHH-ARN-(200-308)-hGDF15: His-tagged hGDF15 with native sequence, compared with AHA variant in material quality check”, the Methionine oxidation ([3]; M1) is reported as “M1: 12.0%”, the N-199 deamidation ([3]; N10) is reported as “N10: 50.1%” and the clipping ([3]; clipping site N10/G11) is reported as “N10/G11 (<1%)”. For the same molecule, the clipping [3, 6] was “R9/N10 (<1%)”.

B1: 12: GDF15 conjugate listed in Table 1 only; no example text in the patent (conjugate, UniProt Q99988 195-308, looked up)
Growth/differentiation factor …: ARARNGDHCPLGPGRCCRLHTVRASLEDLGWADWVLSPREVQVTMCIGACPSQFRAANMHAQIKTSLHRLKPDTVPAPCCVPASYNPMVLIQKTDTGVSLQTYDDLLAKDCHCI
modifications: conjugate
With B1 the “Duration of action: Body weight (BW) reduction” value [4] was 6 to 8 days and the “Duration of action: Food Intake (FI) reduction” value [4] was 6 to 8 days.

B2: hGDF15: non-conjugated hGDF15 (protein, UniProt Q99988 195-308, looked up)
Growth/differentiation factor …: ARARNGDHCPLGPGRCCRLHTVRASLEDLGWADWVLSPREVQVTMCIGACPSQFRAANMHAQIKTSLHRLKPDTVPAPCCVPASYNPMVLIQKTDTGVSLQTYDDLLAKDCHCI
In the case of B2, the “Duration of action: Body weight (BW) reduction” value [4] is reported as 1 days, the “Duration of action: Food Intake (FI) reduction” value [4] is reported as 1 days and the “PK (1/2 life)” value [5] is reported as 1 h.

B3: AHA-(200-308)-hGDF15: GDF15 mutant designed to remove clipping site, methionine formylation site and N-199 deamidation site (protein)
chain: AHAGDHCPLGPGRCCRLHTVRASLEDLGWADWVLSPREVQVTMCIGACPSQFRAANMHAQIKTSLHRLKPDTVPAPCCVPASYNPMVLIQKTDTGVSLQTYDDLLAKDCHCI
modifications: GDF15 mutant, Intermediate 57 AHA-(200-308)- hGDF15
In the case of B3, the clipping [3, 6] is reported as “None”.
